# According to article PMC5882242, “Functional roles of Mg^2+ binding sites in ion-dependent gating of a Mg^2+ channel, MgtE, revealed by solution NMR” (eLife, 2018):
# Molecular target: the molecule itself
# Experiment: SEC; Superdex 200 GL 10/300; 20 mM HEPES-NaOH (pH 6.1), 100 mM NaCl, 1 mM DDM; BSA monomer, dimer and tetramer as standards; MgtE in DDM micelles
protein,measurement,value
"full-length MgtE from Thermus thermophilus (natural protein, UniProt Q5SMG8 1-450, looked up, MgtE, Mg2+ channel of Thermus thermophilus, full length (residues 1-450: cytoplasmic region 1-263, transmembrane region 264-450); plasmid with N-terminal His x 6 tag and HRV-3C protease recognition site; Dimer in DDM micelles by SEC; theoretical M.W. 50 kDa a subunit; The construct is described in Hattori et al., 2007a; also called wild-type MgtE; WT; source: E. coli C41 (DE3), solubilized in …) MEEKLAVSLQEALQEGDTRALREVLEEIHPQDLLALWDELKGEHRYVVLTLLPKAKAAEVLSHLSPEEQAEYLKTLPPWRLREILEELSLDDLADALQAVRKEDPAYFQRLKDLLDPRTRAEVEALARYEEDEAGGLMTPEYVAVREGMTVEEVLRFLRRAAPDAETIYYIYVVDEKGRLKGVLSLRDLIVADPRTRVAEIMNPKVVYVRTDTDQEEVARLMADYDFTVLPVVDEEGRLVGIVTVDDVLDVLEAEATEDIHKLGAVDVPDLVYSEAGPVALWLARVRWLVILILTGMVTSSILQGFESVLEAVTALAFYVPVLLGTGGNTGNQSATLIIRALATRDLDLRDWRRVFLKEMGVGLLLGLTLSFLLVGKVYWDGHPLLLPVVGVSLVLIVFFANLVGAMLPFLLRRLGVDPALVSNPLVATLSDVTGLLIYLSVARLLLEAV",stoichiometry N,2
